PMC314469, “Protein Interaction Networks by Proteome Peptide Scanning” (PLoS Biology, 2004)

T1: Boi2 SH3 (BOI2_YEAST), P39969
T1 chain: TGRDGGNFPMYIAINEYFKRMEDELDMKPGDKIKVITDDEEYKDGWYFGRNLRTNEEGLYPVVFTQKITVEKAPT

T2: Boi1 SH3 (BOI1_YEAST), P38041
T2 chain: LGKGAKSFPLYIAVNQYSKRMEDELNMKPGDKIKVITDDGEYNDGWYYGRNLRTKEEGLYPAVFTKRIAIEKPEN

T3: Yfr024 SH3 (LSB3_YEAST), P43603
T3 chain: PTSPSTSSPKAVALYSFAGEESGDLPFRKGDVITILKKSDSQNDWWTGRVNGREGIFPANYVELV

T4: Myo5 SH3 (MYO5_YEAST), Q04439
T4 chain: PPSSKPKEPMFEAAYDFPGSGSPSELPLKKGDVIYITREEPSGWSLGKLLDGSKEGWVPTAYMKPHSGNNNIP

T5: Rvs167 SH3 (RV167_YEAST), P39743
T5 chain: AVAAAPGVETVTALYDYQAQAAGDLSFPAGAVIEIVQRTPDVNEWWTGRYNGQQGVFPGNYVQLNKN

T6: Yhr016c SH3 (YSC84_YEAST), P32793
T6 chain: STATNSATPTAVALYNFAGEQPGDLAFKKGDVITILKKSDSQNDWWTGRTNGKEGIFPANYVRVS


Tests used:
Experiment in all cases: SPOT array
[1] = target: T1, Boi2 SH3 (BOI2_YEAST), P39969
[2] = target: T2, Boi1 SH3 (BOI1_YEAST), P38041
[3] = target: T3, Yfr024 SH3 (LSB3_YEAST), P43603
[4] = target: T4, Myo5 SH3 (MYO5_YEAST), Q04439
[5] = target: T5, Rvs167 SH3 (RV167_YEAST), P39743
[6] = target: Sho1 SH3 (SHO1_YEAST), P40073
Sequence of Sho1 SH3 (SHO1_YEAST), P40073 (P40073 295-366): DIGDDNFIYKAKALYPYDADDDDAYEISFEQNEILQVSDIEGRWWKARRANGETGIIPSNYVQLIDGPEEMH

[7] = target: T6, Yhr016c SH3 (YSC84_YEAST), P32793

| Binder | normalised SPOT signal, Boehringer light units (BLU); mean over the file's lines of this peptide [1] | normalised SPOT signal, Boehringer light units (BLU); mean over the file's lines of this peptide [2] | normalised SPOT signal, Boehringer light units (BLU); mean over the file's lines of this peptide [3] | normalised SPOT signal, Boehringer light units (BLU); mean over the file's lines of this peptide [4] | normalised SPOT signal, Boehringer light units (BLU); mean over the file's lines of this peptide [5] | normalised SPOT signal, Boehringer light units (BLU); mean over the file's lines of this peptide [6] | normalised SPOT signal, Boehringer light units (BLU); mean over the file's lines of this peptide [7] |
| --- | --- | --- | --- | --- | --- | --- | --- |
| SANGKFIPSRPAPK [YHL007C 465-478] | 5.4 | 128 | 539 | 6760 | 147 | 75.2 | 14.7 |
| RSRSKKDPGIPSNF [YER006W 41-54] | 6.9 | 585 | 360 | 800 | 159 | 118 | 52.3 |
| RTFFKLPPNLPEAE [YHR017W 94-107] | 5.1 | 220 | 1050 | 2610 | 204 | 154 | 32.8 |
| RPVYRLKPNAPFQY [YLR072W 370-383] | 78.2 | 72 | 583 | 210 | 148 | 60.1 | 129 |
| RYSFKLLPPQPGSK [YER114C 841-854] | 47.8 | 796 | 352 | 190 | 84 | 15500 | 23.5 |
| SDNSKSEPLPPVIT [YFR019W 1795-1808] | 1.4 | 0 | 21.6 | 130 | 54.5 | 23.8 | 32.7 |
| SEMHRAAPETPRSI [YKL050C 40-53] | 28.9 | 151 | 904 | 322 | 207 | 95.5 | 140 |

Other lines, results leading:

| normalised SPOT signal, Boehringer light units (BLU); mean over the file's lines of this peptide [1] | normalised SPOT signal, Boehringer light units (BLU); mean over the file's lines of this peptide [2] | normalised SPOT signal, Boehringer light units (BLU); mean over the file's lines of this peptide [3] | normalised SPOT signal, Boehringer light units (BLU); mean over the file's lines of this peptide [4] | normalised SPOT signal, Boehringer light units (BLU); mean over the file's lines of this peptide [5] | normalised SPOT signal, Boehringer light units (BLU); mean over the file's lines of this peptide [6] | normalised SPOT signal, Boehringer light units (BLU); mean over the file's lines of this peptide [7] | Binder |
| --- | --- | --- | --- | --- | --- | --- | --- |
| 41.1 | 1760 | 395 | 824 | 280 | 27000 | 50.6 | RRLKKNLPSLPTPV [YOR127W 138-151] |
| 41.1 | 137 | 819 | 1510 | 423 | 76.1 | 104 | RRRTRLRPPTPLSQ [YPL269W 616-629] |
| 35.4 | 28.1 | 78.9 | 187 | 19.3 | 18 | 21.1 | RTPSKPDPMEPENT [YOR196C 194-207] |
| 552 | 14100 | 18600 | 3570 | 14800 | 2730 | 7330 | RYPFRMIPELPPKR [YMR004W 186-199] |
| 9 | 920 | 570 | 308 | 106 | 123 | 60.5 | RRIRKEHPGEPNVI [YOR090C 334-347] |
| 16 | 299 | 667 | 1290 | 51.8 | 65.3 | 43.4 | RRHNRQHPPYPHSG [YNL165W 14-27] |
| 30.7 | 64.5 | 240 | 170 | 235 | 35.8 | 52.2 | SENGRLTPGLPRSY [YPR111W 42-55] |
| 7 | 66.4 | 18.5 | 393 | 116 | 3.8 | 19.7 | SEAKRKFPEAPEVP [YNL121C 455-468] |
| 20.1 | 89 | 2640 | 2010 | 6330 | 85.3 | 772 | RRKLRTVPGVPLIH [YOR004W 127-140] |
